Entries after “also recorded” stand apart in the source; their conditions may differ.
Assays:
HEK293 cells [1] = assay: Rate of loss of luciferase activity in supernatant of transiently transfected HEK293 cells (FIG. 6); format: cell-based, human; details: CMV promoter, room temperature, QuantiLuc Gold, compared with wild type Metridia longa luciferase
Source text: FIG. 6A illustrates the rate of loss of luciferase activity in the supernatant of HEK293 cells following transient transfection of cells with the luciferases genes indicated, each under the control of a constitutive CMV promoter, and quantification of luciferase activity at increasing times at room temperature using a commercially available coelenterazine based “glo” substrate (QuantiLuc, Gold Invivogen).

[2] = test system: transfected mammalian cells; assay: Comparison of luciferase properties with other luciferases (Table 2); format: cell-based; details: relative to other native or engineered luciferases reported in the literature
Source text: FIG. 12 illustrates Table 2 showing a comparison of the properties of the luciferase encoded by the sequence set forth in SEQ ID NO: 1 and SEQ ID NO:2 and comprising the amino acid sequence encoded by the sequence set forth in AA1 and AA2 relative to those of other native or engineered luciferases reported in the literature.

[3] = test system: NFkB recognition sequence chimeric promoter in K562 cells; assay: K562 clonal cell lines stably transfected with NFkB responsive reporter gene, increasing TNF (FIG. 8); format: cell-based, human; details: stable K562 clones, increasing TNF for 6 hours at 37° C., compared with firefly luciferase under same promoter
Source text: FIG. 8 illustrates a comparison of the response of K562 cells stably transfected with either the luciferase gene comprising the sequence set forth in SEQ ID NO: 1 under the control of a chimeric promoter consisting of a SV40 minimal promoter and a 6-fold tandem repeat of the canonical NFkB recognition sequence and K562 cells stably transfected with the firefly luciferase gene comprising the open reading frame encoding the firefly luciferase protein under the control of the same NFkB responsive promoter and treatment of cells with increasing concentrations of TNF[…] for 6 hours at 37° C.
K562 cells originally derived from a chronic myelogenous leukemia (ATCC, catalogue number CCL-243) were transfected with either the Svar luciferase Luc-1 gene or firefly luciferase gene each under the control of a chimeric promoter consisting a SV40 minimal promoter and a 6-fold tandem repeat of the canonical NFkB recognition sequence. Stable clones were isolated and characterized. The clonal cell lines were treated with increasing concentrations of TNF[…] for 6 hours at 37° C. (FIG. 8).

HEK293 cells [4] = assay: Transient transfection of HEK293 cells, luciferase genes under constitutive CMV promoter, luciferase activity in supernatant (FIG. 3A); format: cell-based, human; details: 18 hours at 37° C., QuantiLuc Gold, compared with native Metridia longa luciferase and other luciferases
Protocol: FIG. 3A illustrates the response of HEK293 cells following transient transfection of cells with the novel Svar vector encoding the luciferases genes indicated, each under the control of a constitutive CMV promoter, and co-transfection of cells with firefly luciferase under the control of a constitutive thymidine kinase (TK) promoter. Luciferase activity was quantified in the cell supernatant after 18 hours incubation of cells at 37° C. using a commercially available coelenterazine based “glo” substrate (QuantiLuc Gold, Invivogen). The cells were then lysed and firefly luciferase activity was quantified with BrightGlo (Promega).
A series of deletion mutants of the 5′ coding region of the native Metridia longa luciferase gene were designed in silico, synthetized in vitro and tested in transient transfection experiments. The nucleotide sequence of the native Metridia longa gene luciferase gene is illustrated in FIG. 1 and the amino acid sequence in FIG. 2.
A series of random mutation were introduced into the coding sequence of the native Metridia longa luciferase gene using oligonucleotides carrying a single or multiple mutations (FIG. 4). The oligonucleotides were synthetized in vitro and tested in transient transfection experiments in human the HEK293 cell line originally derived from human embryonic kidney cells grown in tissue culture (ATCC Catalogue CRL-1573).

[5] = test system: NFkB recognition sequence chimeric promoter in HEK293 cells; assay: Clonal HEK293 cell line stably transfected with NFkB responsive reporter gene, increasing TNF (FIG. 7); format: cell-based, human; details: stable HEK293 clone, increasing TNF for 6 hours at 37° C., QuantiLuc Gold
Source text: FIG. 7 illustrates the response of a clonal cell line of HEK293 cells stably transfected with a reporter gene comprising the sequence set forth in SEQ ID NO: 1 under the control of a chimeric promoter consisting of a SV40 minimal promoter and a 6-fold tandem repeat of the canonical NFkB recognition sequence treated with increasing concentrations of TNF[…].
HEK293 cells were transfected with the Svar luciferase Luc-1 gene under the control of a chimeric promoter consisting a SV40 minimal promoter and a 6-fold tandem repeat of the canonical NFkB recognition sequence and stable clones were isolated and characterized.

[6] = test system: NFkB recognition sequence chimeric promoter in HEK293 cells; assay: Transient transfection of HEK293 cells, luciferase genes under NFkB responsive chimeric promoter, treated with TNF (FIG. 3B); format: cell-based, human; details: compared with native Metridia longa luciferase gene; for luminescence / luciferase activity, relative light units (RLU): 100 ng/ml TNF for 6 hours at 37° C.
Protocol: FIG. 3B illustrates the response of HEK293 cells following transient transfection of cells with the novel Svar vector encoding either the wild type Metridia longa luciferase gene, or the Svar luciferase 1 or the Svar luciferase 2 genes each under the control of a chimeric promoter consisting of a SV40 minimal promoter and a 6-fold tandem repeat of the canonical NFkB recognition sequence and treated with 100 ng/ml of TNF[…] for 6 hours at 37° C. prior to quantification of the luciferase signal using a commercially available coelenterazine based “glo” substrate (QuantiLuc Gold, Invivogen).

Molecule	signal stability and/or signal duration (HEK293 cells [1])	toxicity for transfected mammalian cells [2]	relative light units (RLU) values [3]	luciferase activity / light output (brightness), relative light units (RLU) (HEK293 cells [4])	relative light units (RLU) and fold induction relative to control not treated with TNF [5]	luminescence / luciferase activity, relative light units (RLU) [6]	luminescence / luciferase activity, relative light units (RLU) ([6]; listed as Svar luciferase 1)	dynamic range relative to control samples in the absence of the pharmacology active substance [6]	luciferase activity / light output (brightness), relative light units (RLU) (HEK293 cells [4]; listed as Svar luciferase 2)	luminescence / luciferase activity, relative light units (RLU) ([6]; listed as Svar luciferase 2)
SVAR Luc-1: Engineered luciferase derived from Metridia longa luciferase, amino acid sequence SEQ ID NO: AA1, encoded by SEQ ID NO: 1 (protein, NO.1 (1)..(450) SEQ ID NO.1) MEAEAERGKSPGKKLPLAVIMEIEANAFKAGCTRGCLICLSKIKCTAKMKVYIPGRCHDYGGDKKTGQAGIVGAIVDIPEISGFKEMEPMEQFIAQVDRCASCTTGCLKGLANVKCSELLKKWLPDRCASFADKIQKEVHNIKGMAGDR	increased signal stability and/or signal duration	absence of toxicity	markedly higher relative light units (RLU) values	increased light output (brightness)	high levels of both relative light units (RLU) and fold induction	increased luminescence including increased light output (brightness)	enhanced luciferase activity relative to the wild type gene	higher dynamic range		
SVAR Luc-2: Engineered luciferase derived from Metridia longa luciferase, isoleucine 106 to valine, SEQ ID NO: AA2, encoded by SEQ ID NO: 2 (protein, NO.2 (1)..(450) SEQ ID NO.2) MEAEAERGKSPGKKLPLAVIMEIEANAFKAGCTRGCLICLSKIKCTAKMKVYIPGRCHDYGGDKKTGQAGIVGAIVDIPEISGFKEMEPMEQFVAQVDRCASCTTGCLKGLANVKCSELLKKWLPDRCASFADKIQKEVHNIKGMAGDR	increased signal stability and/or signal duration			improved activity relative to the native Metridia longa luciferase; also recorded: equivalent or slightly reduced activity relative to SVAR Luc-1 luciferase		increased luminescence including increased light output (brightness)		higher dynamic range	increased light output (brightness)	enhanced luciferase activity relative to the wild type gene

Reference: patent US20250270518A1, “NOVEL LUCIFERASES WITH IMPROVED PROPERTIES” (SVAR Life Science AB, priority 2021, published 2025)
